Patent US20230052369A1 (Zymeworks, published 2023)

Target: T1, purified human monomeric 4-1BB (human, UniProt Q07011 24-186)
T1 construct: the assay used the 4-1BB part released by Factor Xa with the Fc removed; also called h4-1BB; human 4-1BB
Test: SPR, Ab captured, monomeric 4-1BB injected
Procedure: The anti-human Fc surface was prepared on a CMS Series S sensorchip by standard amine coupling methods as described by the manufacturer (GE Healthcare). Briefly, immediately after EDC/NHS activation, a 25 μg/mL solution of anti-human Fc in 10 mM NaOAc pH 4.5 was injected at a flow rate of 10 μL/min for 420 s until approximately 2000 resonance units (RUs) were immobilized on all four flow cells. The remaining active groups were quenched by a 420 s injection of 1M ethanolamine at 10 μL/min.
Antibodies for analysis were captured onto the anti-Fc surface by injecting 5 μg/mL solutions at a flow rate of 10 μL/min for 60 s. Using single-cycle kinetics, five concentrations of a two-fold dilution series of 4-1BB starting at 40 nM (for both supernatant and purified antibody runs) with a blank buffer control were sequentially injected at 40 μL/min for 180 s with a 600 s dissociation phase, resulting in a set of sensorgrams with a buffer blank reference. Experiments were performed at a constant temperature of 25° C. The anti-human Fc surfaces were regenerated to prepare for the next injection cycle by one pulse of 10 mM Glycine/HCl pH 1.5 for 120 s at 40 μL/min. Blank-subtracted sensorgrams were analyzed using Biacore™ T200 Evaluation Software v3.0. The blank-subtracted sensorgrams were then fit to the 1:1 Langmuir binding model.
Variants purified by SEC were assessed for binding to human 4-1BB.

T1 sequence (Q07011 other isoform, or with tags, fused parts or gaps limits assumed): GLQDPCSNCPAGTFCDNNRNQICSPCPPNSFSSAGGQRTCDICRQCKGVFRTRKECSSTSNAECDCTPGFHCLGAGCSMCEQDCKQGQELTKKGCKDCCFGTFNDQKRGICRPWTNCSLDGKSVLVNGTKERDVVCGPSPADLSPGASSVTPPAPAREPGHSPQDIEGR

Kd: 0.155 µM
B1: v23662 (bispecific antibody, human IgG1, kappa, L234A L235A)
heavy 1: QVQLKQSGPGLVQPSQSLSITCTVSGFSLTSYGVHWVRQSPGKGLEWLGVIWSGGSTDYNAAFISRLSISKDNSKSQVFFKMNSLQADDTAIYYCARNPLTATVMDYWGQGTSVTVSSASTKGPSVFPLAPSSKSTSGGTAALGCLVKDYFPEPVTVSWNSGALTSGVHTFPAVLQSSGLYSLSSVVTVPSSSLGTQTYICNVNHKPSNTKVDKKVEPKSCDKTHTCPPCPAPEAAGGPSVFLFPPKPKDTLMISRTPEVTCVVVSVSHEDPEVKFNWYVDGVEVHNAKTKPREEQYNSTYRVVSVLTVLHQDWLNGKEYKCKVSNKALPAPIEKTISKAKGQPREPQVYVYPPSRDELTKNQVSLTCLVKGFYPSDIAVEWESNGQPENNYKTTPPVLDSDGSFALVSKLTVDKSRWQQGNVFSCSVMHEALHNHYTQKSLSLSPGGGGGDIVMTQTPSSVSAAVGGTVTIKCQASQTIGSSLAWYQQKPGQPPKLLIYRASTLASGVSSRFRGSGSGTEYTLTISDLECADAATYYCQWTDYGYIYIWAFGGGTEVVVKGGGGSGGGGSGGGGSQEQLVESGGGLVQPEGSLTLTCTASKFSFSSLYYMCWVRQAPGKGLEWIACVYGGSSGNTYYASWAKGRFTISKASSTTVTLQLTSLTAADTATYFCARFDVDGSGFNLWGPGTLVTVSS
heavy 2: QVQLKQSGPGLVQPSQSLSITCTVSGFSLTSYGVHWVRQSPGKGLEWLGVIWSGGSTDYNAAFISRLSISKDNSKSQVFFKMNSLQADDTAIYYCARNPLTATVMDYWGQGTSVTVSSASTKGPSVFPLAPSSKSTSGGTAALGCLVKDYFPEPVTVSWNSGALTSGVHTFPAVLQSSGLYSLSSVVTVPSSSLGTQTYICNVNHKPSNTKVDKKVEPKSCDKTHTCPPCPAPEAAGGPSVFLFPPKPKDTLMISRTPEVTCVVVSVSHEDPEVKFNWYVDGVEVHNAKTKPREEQYNSTYRVVSVLTVLHQDWLNGKEYKCKVSNKALPAPIEKTISKAKGQPREPQVYVLPPSRDELTKNQVSLLCLVKGFYPSDIAVEWESNGQPENNYLTWPPVLDSDGSFFLYSKLTVDKSRWQQGNVFSCSVMHEALHNHYTQKSLSLSPG
light: DIVMTQSQKFMSTSVGDRVSVTCKASQNVGTNVAWYQQKPGQSRTVLIYSASYRHSGVPDRFTGSGSGTDFTLTISNVQSEDLAEYFCQQYNSYPLTFGTGTKLELKRTVAAPSVFIFPPSDEQLKSGTASVVCLLNNFYPREAKVQWKVDNALQSGNSQESVTEQDSKDSTYSLSSTLTLSKADYEKHKVYACEVTHQGLSSPVTKSFNRGEC
notes: also called 2E8 x 1H06 (VLVH) 2x1
